Measurements as given in the Immune Epitope Database (IEDB).

What was measured:
HLA-A*02:01 = assay: IEDB peptide-MHC binding, purified MHC/competitive/radioactivity; ≥ and ≤ were set here for values at or beyond the usual limits of such assays; settings: source organism: Lassa virus Josiah
HLA-A*02:02 = assay: as above
HLA-A*02:03 = assay: as above
HLA-A*02:06 = assay: as above
HLA-A*68:02 = assay: IEDB peptide-MHC binding, purified MHC/competitive/radioactivity; filed as Kd, often an IC50 or EC50 that approximates it; ≥ and ≤ were set here for values at or beyond the usual limits of such assays
[1] = source organism: Lassa virus GA391
[2] = source organism: Lassa virus Josiah

Row | Sequence | IC50 (HLA-A*02:01) | other results
1 | YLISIFLHL | 14 nM | IC50 (HLA-A*02:02; [1]): 173 nM; IC50 (HLA-A*02:03; [1]): 11 nM; IC50 (HLA-A*02:06; [1]): 10 nM; Kd (HLA-A*68:02; [1]): 6660 nM
2 | GLYKQPGVPV | 89 nM | –
3 | IISTFHLSI | 330 nM | –
4 | LMSIISTFHL | 113 nM | –
5 | ILAADLEKL | 92 nM | –
6 | GLYNFATCGL | 31 nM | –
7 | SLYKGVYEL | 47 nM | IC50 (HLA-A*02:02; [2]): 115 nM; IC50 (HLA-A*02:03; [2]): 12 nM; IC50 (HLA-A*02:06; [2]): 395 nM; Kd (HLA-A*68:02; [2]): ≥ 10000 nM
8 | VLIALSVLAV | 485 nM | –
9 | LIALSVLAV | 102 nM | –
